Test results reported in US20170137490A1, “PEPTIDES, AND METHODS AND APPARATUS UTILISING SAME” (The University of Manchester, priority 2014, published 2017).

Test system: human anti-PLA2R autoantibodies
Assay: Western blotting of PLA2R fragments with human anti-PLA2R autoantibodies
Assay type: binding

B1: mouse PLA2R: recombinant mouse PLA2R (R&D) (protein)
chain: QDLTHIQEPSLEWRDKGIFIIQSESLKTCIQAGKSVLTLENCKQPNEHMLWKWVSDDHLFNVGGSGCLGLNISALEQPLKLYECDSTLISLRWHCDRKMIEGPLQYKVQVKSDNTVVARKQIHRWIAYTSSGGDICEHPSRDLYTLKGNAHGMPCVFPFQFKGHWHHDCIREGQKEHLLWCATTSRYEEDEKWGFCPDPTSMKVFCDATWQRNGSSRICYQFNLLSSLSWNQAHSSCLMQGGALLSIADEDEEDFIRKHLSKVVKEVWIGLNQLDEKAGWQWSDGTPLSYLNWSQEITPGPFVEHHCGTLEVVSAAWRSRDCESTLPYICKRDLNHTAQGILEKDSWKYHATHCDPDWTPFNRKCYKLKKDRKSWLGALHSCQSNDSVLMDVASLAEVEFLVSLLRDENASETWIGLSSNKIPVSFEWSSGSSVIFTNWYPLEPRILPNRRQLCVSAEESDGRWKVKDCKERLFYICKKAGQVPADEQSGCPAGWERHGRFCYKIDTVLRSFEEASSGYYCSPALLTITSRFEQAFITSLISSVAEKDSYFWIALQDQNNTGEYTWKTVGQREPVQYTYWNTRQPSNRGGCVVVRGGSSLGRWEVKDCSDFKAMSLCKTPVKIWEKTELEERWPFHPCYMDWESATGLASCFKVFHSEKVLMKRSWREAEAFCEEFGAHLASFAHIEEENFVNELLHSKFNWTQERQFWIGFNRRNPLNAGSWAWSDGSPVVSSFLDNAYFEEDAKNCAVYKANKTLLPSNCASKHEWICRIPRDVRPKFPDWYQYDAPWLFYQNAEYLFHTHPAEWATFEFVCGWLRSDFLTIYSAQEQEFIHSKIKGLTKYGVKWWIGLEEGGARDQIQWSNGSPVIFQNWDKGREERVDSQRKRCVFISSITGLWGTENCSVPLPSICKRVKIWVIEKEKPPTQPGTCPKGWLYFNYKCFLVTIPKDPRELKTWTGAQEFCVAKGGTLVSIKSELEQAFITMNLFGQTTNVWIGLQSTNHEKWVNGKPLVYSNWSPSDIINIPSYNTTEFQKHIPLCALMSSNPNFHFTGKWYFDDCGKEGYGFVCEKMQDTLEHHVNVSDTSAIPSTLEYGNRTYKIIRGNMTWYAAGKSCRMHRAELASIPDAFHQAFLTVLLSRLGHTHWIGLSTTDNGQTFDWSDGTKSPFTYWKDEESAFLGDCAFADTNGRWHSTACESFLQGAICHVVTETKAFEHPGLCSETSVPWIKFKGNCYSFSTVLDSRSFEDAHEFCKSEGSNLLAIRDAAENSFLLEELLAFGSSVQMVWLNAQFDNNNKTLRWFDGTPTEQSNWGLRKPDMDHLKPHPCVVLRIPEGIWHFTPCEDKKGFICKMEAGIPAVTAQPEKGLSHS
- recognition by human anti-PLA2R autoantibodies: fail to react
